Data on 1 molecule can be found in patent US20250215403A1, “Compositions and Methods for Cardiac Tissue Regeneration” (Temple University - Of The Commonwealth System Of Higher …, priority 2022, published 2025).

Common to all, as to assay type: in vivo
Series [1] has as its system cardiomyocytes (CM). The series can be described thus: Mouse MI model: immunostaining of heart sections for CM cell cycle markers (ki67, pH3, BrdU, Aurora B). Conditions: seven days post-MI. As for the experimental part: (§1) All surgical and experimental procedures with mice were performed in accordance with protocols approved by Institutional Animal Care and Use Committees at Temple University Animal Care and Use Committee (IACUC). C57BL6 or CM-specific MADM mice (8-12-weeks-old) were anesthetized with isoflurane. MI was induced by permanent ligation of the LAD, as previously described (Garikipati, V. N. S., et al., 2019, Nature Communications, 10:4317). Briefly, the left thoracic region was shaved and sterilized. After intubation, the heart was exposed through a left thoracotomy. A suture was placed to ligate the LAD. The thoracotomy and skin were sutured closed in layers. Excess air was removed from the thoracic cavity, and the mouse was removed from ventilation when normal breathing was established. In order to determine the effect of modRNA on cardiovascular outcome after MI, modRNAs (100 μg/heart) were injected into the infarct zone immediately after LAD ligation (Magadum A., et al., Circulation. 2020, 141 (15): 1249-1265). For examination of heart histology, hearts were collected at the end of each study, quickly washed in PBS, weighed, and fixed in 4% PFA for cryo-sectioning and immunostainings. In all experiments, the surgeon was blinded to the treatment group. For assessment of heart histology, hearts were collected at the end of each study. The hearts were excised, briefly washed in PBS, perfused with perfusion buffer, weighed and fixed in 4% PFA at 4° C. overnight. The heart blocks were transverse sectioned at 6-8 μm using cryostat. The heart sections were further processed for histological evaluation using immunostaining (see below) or histological scar staining using Masson's trichrome staining kit (Sigma) according to standard procedures. Measuring the ratio of heart weight to body weight was done using a scale. This ratio was calculated as the heart tissue weight relative to the mouse total body weight in grams (g).
Mice were injected with AAV9-GFP or AAV9-YAP1-shRNA (GeneCopoeia) through retro-orbital injection 7 days before LAD. A total of 5×10^11 viral genomes (50 μl total volume delivered) was injected per mouse. The level of YAP1 inhibition was determined at the mRNA level by qPCR 14 days post injection.
Mice hearts were harvested, weighed, and fixed in 4% PFA/PBS overnight on shaker and then washed with PBS for 1 hour and incubated in 30% sucrose/PBS at 4° C. for 12-18 hours. Hearts were then fixed in OCT and frozen at −80° C. (Magadum A., et al., Circulation. 2020, 141 (15): 1249-1265). Transverse heart sections (6-8 μm) were made using a cryostat. Frozen sections were rehydrated in PBS for 5-10 min followed by permeabilization with PBS with 0.1% Triton™ X100 (PBST) for 7-8 min. Heart sections were then treated with 3% H2O2 for 5 min and washed (3×5 min) with PBST. The samples were then blocked with PBS+10% Donkey normal serum+0.1% Triton™ X100 (PBSST) for 1 hour at room temperature. Primary antibodies (see complete list of primary antibodies used for this Example in Table 2 below) diluted in PBST were added and incubated overnight at 4° C. Slides were washed with PBST (3×5 min) followed by incubation with a secondary antibody (Invitrogen, 1:200) diluted in PBST for 90-120 min at room temperature. The samples were further washed with PBST (3×5 min) and stained with DAPI or Hoechst 33342 (1 μg/ml) diluted in PBST for 7 min. After being washed with PBST (3×7 min) and tap water (1×5 min) slides were mounted with mounting medium (VECTASHIELD®) for imaging (Magadum A., et al., Circulation. 2020, 141 (15): 1249-1265). Stained slides were stored at 4° C. All staining was performed on 4-8 hearts/group, with 2-3 sections/heart. For immunostaining with wheat germ agglutinin (WGA) for CM size quantification, images were captured at 40× magnification, and ImageJ was used to determine the area of each cell. […]

For series [2], the system named is serine synthesis pathway (SSP). The series is described as follows: Serine and glycine levels in mouse heart post-MI. The settings on record: two days post-MI; HPLC study; vs Luc modRNA.
Series [3] relates to cardiomyocytes (CM). The series can be described thus: Mouse MI model: TUNEL staining of CM apoptosis. The settings on record: vs Luc modRNA. As for the experimental part: as §1
Mice hearts were harvested, weighed, and fixed in 4% PFA/PBS overnight on shaker and then washed with PBS for 1 hour and incubated in 30% sucrose/PBS at 4° C. for 12-18 hours. Hearts were then fixed in OCT and frozen at −80° C. (Magadum A., et al., Circulation. 2020, 141 (15): 1249-1265). Transverse heart sections (6-8 μm) were made using a cryostat. […] For immunostaining with wheat germ agglutinin (WGA) for CM size quantification, images were captured at 40× magnification, and ImageJ was used to determine the area of each cell. Quantitative analyses involved counting of multiple fields from 5-8 mouse hearts per group, and 3-4 sections/heart (˜50 cells per field assessed, for a total ˜250 cells per sample). […] BrdU positive CMs were counted in multiple fields from three independent samples per group and 3 sections/heart. […]

B1: PSAT1 modRNA: modified mRNA with N1-methylpseudouridine, transcribed in vitro, encoding phosphoserine aminotransferase 1 (ORF SEQ ID NO: 1, RNA SEQ ID NO: 2) (nucleic acid)
chain: AUGGAAGCCACCAAGCAAGUGGUUAACUUUGGGCCCGGGCCUGCCAAGCUGCCACACUCGGUAUUGUUGGAGAUCCAGAAGCAGCUACUAGACUACAGAGGACUCGGCAUCAGUGUGCUCGAAAUGAGUCACAGGUCAUCAGAUUUUGCCAAGAUUAUUGGCAAUACAGAGAAUCUUGUGAGGGAAUUGCUAGCUGUUCCCAACAACUACAAGGUGAUCUUUGUACAAGGAGGUGGGUCUGGCCAGUUCAGUGCUGUCCCCUUAAAUCUGAUUGGCCUGAAAGCUGGAAGGAGUGCUGACUACGUGGUGACCGGAGCUUGGUCAGCUAAGGCUGCGGAAGAAGCCAAGAAGUUUGGAACGGUGAACAUUGUCCACCCUAAACUUGGAAGUUACACAAAAAUUCCAGACCCAAGCACCUGGAACCUCAACCCGGACGCCUCCUAUGUAUACUUCUGUGCAAACGAGACUGUGCACGGGGUGGAGUUUGACUUCGUACCUGACGUCAAGGGAGCGGUGCUGGUCUGUGACAUGUCCUCAAACUUCUUAUCCAGGCCGGUGGAUGUUUCCAAGUUUGGUGUGAUUUUCGCUGGUGCUCAGAAGAAUGUUGGCUCUGCCGGGGUGACGGUGGUGAUUGUCCGGGAUGACCUGCUGGGGUUCUCGCUCAGAGAGUGCCCAUCAGUCCUUGACUACAAAGUGCAGGCUGGGAACAACUCUUUGUAUAACACACCUCCGUGCUUCAGCAUCUACGUCAUGGGCAUGGUCCUGGAAUGGAUCAAGAACAACGGCGGGGCCGCAGCCAUGGAGAAGCUCAGCUCCAUCAAAUCCCAAAUGAUUUAUGAGAUCAUUGAUAAUUCUCAAGGAUUUUAUGUAUGCCCAGUGGAGCGCCAGAAUAGAAGCAGGAUGAACAUCCCAUUUCGCAUUGGCAACGCCAAAGGAGACGAAGCUUUGGAAAAGCGGUUUCUUGACAAGGCGGUAGAACUCAACAUGAUCUCCUUGAAGGGGCACAGGUCAGUGGGAGGCAUUCGUGCCUCUCUGUAUAACGCUGUCACAACCGAAGACGUUGAGAAGCUGGCGGCCUUCAUGAAGAAUUUCUUGGAGAUGCAUCAGCUGUGA
modifications: N1-methylpseudouridine
For the molecule B1, the “CM cell cycle inhibition under YAP1 inhibition” value with cardiomyocytes (CM) [1] (PSAT1 modRNA plus AAV9-YAP1-shRNA, compared to controls, significantly lower rate than PSAT1 modRNA alone) was “partially reversed”. In the series with cardiomyocytes (CM) [1] (compared to Luc modRNA), the “CMs positive for Aurora B” value is recorded as “significant increase”, the “CMs positive for BrdU (DNA synthesis)” value is “significant increase” and the “CMs positive for pH3” value is given as “significant increase”. Also, in series [2], the “glycine levels in heart” value was “increase” and the “serine levels in heart” value was “increase”. In addition, in the series with cardiomyocytes (CM) [3] (2 days post-MI), the “TUNEL+ CMs” value is “significantly decreased”. In addition, the “TUNEL+ CMs” value with cardiomyocytes (CM) [3] (7 days post-MI) was “significantly decreased”.
